Laboratory results reported in publication PMC5159498.

Legend:
CDC42 Q61L (human) [1] = molecular target: CDC42 Q61L (human) (UniProt P60953); assay: fluorescence polarisation; IQGAP1 variant titrated to mGppNHp-bound RHO protein (1 μM); equilibrium Kd (eKd), quadratic fit; 30 mM Tris/HCl pH 7.5, 150 mM NaCl, 5 mM MgCl2, 3 mM DTT, 25 °C
CDC42 Q61L (human) [2] = molecular target: CDC42 Q61L (human) (UniProt P60953); assay: stopped-flow fluorometry; tGppNHp (tamra-GppNHp)-bound CDC42 or CDC42 Q61L (0.2 μM) rapidly mixed with IQGAP1 variant (2-10 μM GRD1-CT for Q61L); Kd = koff/kon; 30 mM Tris-HCl pH 7.5, 10 mM KH2PO4/K2HPO4, 5 mM MgCl2, 3 mM DTT
CDC42 Q61L (human) [3] = molecular target: CDC42 Q61L (human) (UniProt P60953); assay: fluorescence polarisation; GRD1-CT (0-2.5 μM) or GRD2 (0-7.5 μM) titrated to tGppNHp-bound CDC42 Q61L (1 μM); 30 mM Tris/HCl pH 7.5, 150 mM NaCl, 5 mM MgCl2, 3 mM DTT, 25 °C
CDC42 (aa 1-178) (human) [4] = molecular target: CDC42 (aa 1-178) (human) (UniProt P60953); assay: fluorescence polarisation; IQGAP1 variant titrated to mGDP-bound (inactive) RHO protein (1 μM), same conditions as with mGppNHp; 30 mM Tris/HCl pH 7.5, 150 mM NaCl, 5 mM MgCl2, 3 mM DTT, 25 °C
Chain of CDC42 (aa 1-178) (human) (P60953 1-178): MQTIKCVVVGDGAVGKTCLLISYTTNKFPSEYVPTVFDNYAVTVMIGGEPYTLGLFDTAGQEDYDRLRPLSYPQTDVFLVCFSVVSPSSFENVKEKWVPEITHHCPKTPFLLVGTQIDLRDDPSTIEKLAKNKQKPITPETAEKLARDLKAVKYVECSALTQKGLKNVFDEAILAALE

RAC1 (aa 1-179) (human) = RAC1 (aa 1-179) (human) (UniProt P63000); assay: fluorescence polarisation; IQGAP1 variant titrated to mGppNHp-bound RHO protein (1 μM); equilibrium Kd (eKd), quadratic fit; 30 mM Tris/HCl pH 7.5, 150 mM NaCl, 5 mM MgCl2, 3 mM DTT, 25 °C
CDC42 (aa 1-178) (human) [5] = molecular target: CDC42 (aa 1-178) (human) (UniProt P60953); assay: as above

Chain of IQGAP1 GRD2 (aa 962-1345) (P46940 962-1345): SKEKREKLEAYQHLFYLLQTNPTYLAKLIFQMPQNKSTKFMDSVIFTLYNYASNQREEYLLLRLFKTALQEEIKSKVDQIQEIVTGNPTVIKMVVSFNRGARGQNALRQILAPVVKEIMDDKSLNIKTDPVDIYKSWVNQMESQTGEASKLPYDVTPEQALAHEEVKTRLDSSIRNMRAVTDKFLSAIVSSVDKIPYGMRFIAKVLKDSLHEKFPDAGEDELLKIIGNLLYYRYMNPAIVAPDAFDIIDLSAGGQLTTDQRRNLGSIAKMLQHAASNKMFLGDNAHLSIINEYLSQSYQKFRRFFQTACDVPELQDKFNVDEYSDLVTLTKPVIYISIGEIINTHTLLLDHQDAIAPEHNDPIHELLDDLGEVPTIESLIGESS
Chain of IQGAP1 GRD1-CT (aa 863-1657) (P46940 863-1657): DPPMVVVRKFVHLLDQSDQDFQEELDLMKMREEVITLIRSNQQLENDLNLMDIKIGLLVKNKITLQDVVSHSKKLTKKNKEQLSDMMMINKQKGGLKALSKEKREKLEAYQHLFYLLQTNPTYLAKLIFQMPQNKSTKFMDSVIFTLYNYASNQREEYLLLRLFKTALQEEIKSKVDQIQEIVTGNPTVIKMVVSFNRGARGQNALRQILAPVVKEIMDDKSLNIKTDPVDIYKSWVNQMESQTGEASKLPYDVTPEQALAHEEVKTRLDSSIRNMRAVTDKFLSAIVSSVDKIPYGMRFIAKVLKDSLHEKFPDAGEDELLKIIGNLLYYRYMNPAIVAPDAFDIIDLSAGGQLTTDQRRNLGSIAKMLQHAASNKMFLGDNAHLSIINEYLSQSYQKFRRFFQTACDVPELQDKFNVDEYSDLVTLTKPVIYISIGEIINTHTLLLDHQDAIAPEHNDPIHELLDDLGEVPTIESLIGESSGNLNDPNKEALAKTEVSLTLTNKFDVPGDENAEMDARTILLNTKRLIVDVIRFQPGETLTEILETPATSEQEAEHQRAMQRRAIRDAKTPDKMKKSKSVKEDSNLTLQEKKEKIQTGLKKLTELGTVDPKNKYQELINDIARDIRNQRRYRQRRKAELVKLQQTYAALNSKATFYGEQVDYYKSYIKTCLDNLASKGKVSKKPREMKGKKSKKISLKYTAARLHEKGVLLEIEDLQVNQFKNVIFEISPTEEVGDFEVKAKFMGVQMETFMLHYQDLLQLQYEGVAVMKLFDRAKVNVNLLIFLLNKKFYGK

| Kd (CDC42 Q61L (human) [1]) | Kd (CDC42 Q61L (human) [2]) | Kd (CDC42 Q61L (human) [3]) | Kd (CDC42 (aa 1-178) (human) [4]) | Kd (RAC1 (aa 1-179) (human)) | Kd (CDC42 (aa 1-178) (human) [5]) | Substance |
| --- | --- | --- | --- | --- | --- | --- |
| 830 nM | 50 nM | 520 nM |  |  |  | IQGAP1 GRD1-CT (aa 863-1657) (from UniProt P46940 863-1657) (domain or fragment) |
| 2370 nM |  | 1130 nM | 185000 nM | 81500 nM | 30200 nM | IQGAP1 GRD2 (aa 962-1345) (from UniProt P46940 962-1345) (domain or fragment) |
